Source: PMC12394070

Target: HA–TDP-43–FKBP

Substance FRB–PML–Myc has a solubility assay: share of TDP-43 in the insoluble fraction after heat stress with rapamycin (80% without rapamycin) (% of TDP-43 in the insoluble fraction) of 20.
